Assays:
N4075R = target: T1, N4075R (Tolypothrix sp., UniProt Z9F5K4BE25); assay: X-ray crystal structure ([…] Å); format: binding; settings: covalent; Schiff base lysine; isomer not stated for this protein
T1 construct: E. coli cell-free synthesis for crystallization, in meso
T1 sequence (Z9F5K4BE25 8-259): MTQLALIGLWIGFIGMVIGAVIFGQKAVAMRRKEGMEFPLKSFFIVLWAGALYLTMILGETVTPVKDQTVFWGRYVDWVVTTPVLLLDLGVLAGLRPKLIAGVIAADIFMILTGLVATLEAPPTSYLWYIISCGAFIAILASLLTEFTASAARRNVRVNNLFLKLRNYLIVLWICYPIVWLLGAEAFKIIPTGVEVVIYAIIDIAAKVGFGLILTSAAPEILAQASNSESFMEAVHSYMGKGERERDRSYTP

N2098R = target: T2, N2098R (Calothrix sp., UniProt Z9R0O1FWN2); assay: X-ray crystal structure ([…] Å); retinal isomer HPLC; format: binding; settings: covalent; Schiff base with Lys204; in meso crystals
T2 construct: crystal: E. coli cell-free synthesis; retinal analysis: synthetic codon-optimized gene in pET21a, E. coli, C-terminal His-tag, DDM-solubilized
T2 sequence (Z9R0O1FWN2 8-254): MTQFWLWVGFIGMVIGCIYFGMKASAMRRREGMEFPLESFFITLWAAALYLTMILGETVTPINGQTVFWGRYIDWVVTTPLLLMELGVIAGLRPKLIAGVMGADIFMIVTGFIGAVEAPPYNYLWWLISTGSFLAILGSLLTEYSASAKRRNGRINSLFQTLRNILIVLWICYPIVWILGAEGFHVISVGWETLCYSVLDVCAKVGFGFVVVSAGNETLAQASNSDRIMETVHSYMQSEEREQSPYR

Asp85 = Asp85 (UniProt position 98, WARYADWLFTT); settings: cited from earlier work
Asp121 = Asp121 (UniProt position 121, AYRYVDWLLTV); settings: cited from earlier work
Asp97 = Asp97 (UniProt position 97, VFRYIDWLLTV); settings: cited from earlier work
Asp74 (position 74, …) = assay: UV-vis; settings: room temperature (approx. 25°C); 50 mM NaCl; seven-mix buffer (Tris, citric acid, MES, HEPES, MOPS, CHES, CAPS; 10 mM each); dark/unphotolysed state under room light, all-trans retinal bound, detergent-solubilised, folded (reversibility checked)

In the case of `CC1=C(/C=C/C(C)=C/C=C/C(C)=C/C=O)C(C)(C)CCC1` [all-trans retinal], the “X-ray crystal structure (1.9 Å)” value (N4075R) is reported as “Since the two structures were almost identical, only the structure of N2098R is described” and the “X-ray crystal structure (2.65 Å); retinal isomer HPLC” value (N2098R) is reported as “the isomeric state of retinal was predominantly all-trans”.

For “Bacteriorhodopsin (BR) (Halobacterium salinarum)”, the pKa (Asp85) is listed as “Approx. 2.6”.

For “Gloeobacter rhodopsin (GR) (Gloeobacter violaceus PCC 7421)”, the pKa (Asp121) is given as “Approx. 5.9”.

In the case of “Green-absorbing proteorhodopsin (GPR) (uncultured marine gamma proteobacterium EBAC31A08)”, the pKa (Asp97) is listed as “Approx. 7.9”.

B1: Cyanorhodopsin N2098R (Calothrix sp. NIES-2098) (protein)
chain: MTQFWLWVGFIGMVIGCIYFGMKASAMRRREGMEFPLESFFITLWAAALYLTMILGETVTPINGQTVFWGRYIDWVVTTPLLLMELGVIAGLRPKLIAGVMGADIFMIVTGFIGAVEAPPYNYLWWLISTGSFLAILGSLLTEYSASAKRRNGRINSLFQTLRNILIVLWICYPIVWILGAEGFHVISVGWETLCYSVLDVCAKVGFGFVVVSAGNETLAQASNSDRIMETVHSYMQSEEREQSPYR
B1 gave a pKa (Asp74 (position 74, …)) of less than 2.0.

Source: PMC7541481, “A unique clade of light-driven proton-pumping rhodopsins evolved in the cyanobacterial lineage” (Scientific Reports, 2020)
